Numbered stars: 1 amine (or outer) side, 2 acyl side, 3 side chain; on linkers, the order of the positions; unused ones are H or OH. Square brackets hold non-standard residues; d marks the D form. Ends that are not written are not given here. * marks the point of attachment. O(CA) = ornithine chloroamidine, N=C(CCl)NCCC[C@H](N[*:1])C(=O)[*:2]; Orn(fluoroacetimidoyl) = N=C(CF)NCCC[C@H](N)C(=O)O; Moc = COC(=O)*
T1: papain (UniProt P00784 134-345)
T1 sequence (looked up): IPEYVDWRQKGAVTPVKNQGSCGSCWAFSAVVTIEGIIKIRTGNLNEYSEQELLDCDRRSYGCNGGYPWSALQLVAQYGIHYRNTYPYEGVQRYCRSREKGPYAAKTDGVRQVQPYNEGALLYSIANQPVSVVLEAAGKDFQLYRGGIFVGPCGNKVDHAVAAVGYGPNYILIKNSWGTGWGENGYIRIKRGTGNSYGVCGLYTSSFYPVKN


What was measured:
Assay in all cases: cell-based or functional assay
[1] = molecular target: T2, recombinant human PAD2 (human, UniProt Q9Y2J8 1-665)
T2 sequence (Q9Y2J8 whole entry): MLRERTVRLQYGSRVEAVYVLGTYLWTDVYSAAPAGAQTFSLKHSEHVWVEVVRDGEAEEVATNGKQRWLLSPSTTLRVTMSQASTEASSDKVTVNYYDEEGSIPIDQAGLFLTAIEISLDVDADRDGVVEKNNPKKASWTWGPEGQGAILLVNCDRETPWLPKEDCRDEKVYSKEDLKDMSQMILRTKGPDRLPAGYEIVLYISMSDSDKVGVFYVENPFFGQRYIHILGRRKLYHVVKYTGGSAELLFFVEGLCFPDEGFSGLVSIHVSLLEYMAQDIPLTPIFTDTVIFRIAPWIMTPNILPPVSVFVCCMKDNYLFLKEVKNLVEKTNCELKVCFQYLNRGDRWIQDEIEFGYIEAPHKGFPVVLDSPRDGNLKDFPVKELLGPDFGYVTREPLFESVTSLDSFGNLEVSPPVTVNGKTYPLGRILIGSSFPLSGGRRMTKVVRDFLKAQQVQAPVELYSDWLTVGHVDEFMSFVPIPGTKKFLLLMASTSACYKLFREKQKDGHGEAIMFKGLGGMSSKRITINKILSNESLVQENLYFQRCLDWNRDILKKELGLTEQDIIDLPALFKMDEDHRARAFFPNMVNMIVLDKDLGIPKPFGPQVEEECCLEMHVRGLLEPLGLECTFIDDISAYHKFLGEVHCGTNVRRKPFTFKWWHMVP

[2] = molecular target: T3, recombinant human PAD4 (human, UniProt Q9UM07 1-663)
T3 sequence (Q9UM07 whole entry): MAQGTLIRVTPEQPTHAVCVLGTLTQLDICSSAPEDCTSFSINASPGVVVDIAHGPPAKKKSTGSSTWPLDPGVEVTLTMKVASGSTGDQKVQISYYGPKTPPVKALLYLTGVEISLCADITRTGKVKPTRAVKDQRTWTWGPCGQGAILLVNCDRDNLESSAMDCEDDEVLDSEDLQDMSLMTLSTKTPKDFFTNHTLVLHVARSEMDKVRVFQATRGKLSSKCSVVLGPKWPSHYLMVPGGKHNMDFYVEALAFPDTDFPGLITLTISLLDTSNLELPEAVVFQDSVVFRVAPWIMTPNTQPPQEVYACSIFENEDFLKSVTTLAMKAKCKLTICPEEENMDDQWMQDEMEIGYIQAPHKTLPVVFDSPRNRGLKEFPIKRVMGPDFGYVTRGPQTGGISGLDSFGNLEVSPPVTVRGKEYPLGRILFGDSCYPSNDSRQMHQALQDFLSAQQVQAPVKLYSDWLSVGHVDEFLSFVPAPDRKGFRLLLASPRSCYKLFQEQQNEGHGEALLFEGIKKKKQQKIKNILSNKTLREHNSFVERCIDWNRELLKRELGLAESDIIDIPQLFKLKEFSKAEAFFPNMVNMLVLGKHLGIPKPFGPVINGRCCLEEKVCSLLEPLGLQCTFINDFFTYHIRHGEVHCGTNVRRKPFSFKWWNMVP

[3] = molecular target: human N(G),N(G)-dimethyl-L-arginine dimethylaminohydrolase isotype 1 (human, UniProt O94760 1-285)
human N(G),N(G)-dimethyl-L-arginine dimethylaminohydrolase isotype 1, sequence (O94760 whole entry): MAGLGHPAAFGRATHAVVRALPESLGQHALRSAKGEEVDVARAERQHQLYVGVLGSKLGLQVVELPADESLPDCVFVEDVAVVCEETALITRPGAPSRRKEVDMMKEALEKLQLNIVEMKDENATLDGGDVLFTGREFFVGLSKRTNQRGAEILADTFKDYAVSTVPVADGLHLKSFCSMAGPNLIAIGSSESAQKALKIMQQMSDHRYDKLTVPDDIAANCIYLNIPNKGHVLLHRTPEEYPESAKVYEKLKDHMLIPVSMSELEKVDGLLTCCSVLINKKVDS

[4] = molecular target: caspase-3
[5] = molecular target: creatine kinase
[6] = molecular target: transglutaminase
[7] = molecular target: T1, papain
[8] = molecular target: T2, recombinant human PAD2; remark: listed apart in the source
[9] = molecular target: T3, recombinant human PAD4; remark: listed apart in the source
[10] = molecular target: T2, recombinant human PAD2; remark: listed apart in the source
[11] = molecular target: T3, recombinant human PAD4; remark: listed apart in the source

Row | Binder | IC50 values (µM), colorimetric assay [1] [µM] | IC50 values (µM), colorimetric assay [2] [µM] | IC50 values (µM), hDDAH-1 activity assay [3] [µM] | IC50 values (µM), caspase-3 activity assay [4] [µM] | IC50 values (µM), creatine kinase activity assay [5] [µM] | IC50 values (µM), transglutaminase activity assay [6] [µM] | IC50 values (µM), papain activity assay [7] [µM] | conversion of 0708-30 by PAD2, 10 µM inhibitor (0 µM: 68) [8] [%] | conversion of 0708-30 by PAD2, 50 µM inhibitor (0 µM: 68) [8] [%] | conversion of 0708-30 by PAD2, 100 µM inhibitor (0 µM: 68) [8] [%] | conversion of 0708-30 by PAD4, 10 µM inhibitor (0 µM: 81) [9] [%] | conversion of 0708-30 by PAD4, 50 µM inhibitor (0 µM: 81) [9] [%] | conversion of 0708-30 by PAD4, 100 µM inhibitor (0 µM: 81) [9] [%] | further results
1 | Moc-TD[Orn(fluoroacetimidoyl)]GS-OMe (SMILES COC(=O)N[C@H](C(=O)N[C@@H](CC(=O)O)C(=O)N[C@@H](CCCNC(=N)CF)C(=O)NCC(=O)N[C@@H](CO)C(=O)OC)[C@@H](C)O) [CXP5-101] | 35 | 10 | > 2000 | > 1000 | 780 | 600 | > 2000 |  |  |  |  |  |  | 
2 | Ac-GD[O(CA)]GS [CXP5.2-078] | > 500 | 18 | 1200 | 1000 | 780 | 730 | 1050 |  |  |  |  |  |  | 
3 | Ac-YD[O(CA)]GS [CXP5.2-081] | 200 | 10 | 1330 | > 1000 | 1000 | > 1000 | > 2000 |  |  |  |  |  |  | 
4 | Ac-KFD[Orn(fluoroacetimidoyl)]DFI-NH2 (SMILES CC[C@H](C)[C@H](NC(=O)[C@H](Cc1ccccc1)NC(=O)[C@H](CC(=O)O)NC(=O)[C@H](CCCNC(=N)CF)NC(=O)[C@H](CC(=O)O)NC(=O)[C@H](Cc1ccccc1)NC(=O)[C@H](CCCCN)NC(C)=O)C(N)=O) [0743-58FA] | 35 | 6 | > 2000 | 920 | 800 | 1000 | > 2000 | 33 | 8 | 4 | 38 | 19 | 10 | Inhibition of PAD2: value at 10 µM inhibitor (0 µM: 74) [10]: 39%; Inhibition of PAD2: value at 20 µM inhibitor (0 µM: 74) [10]: 26%; Inhibition of PAD2: value at 40 µM inhibitor (0 µM: 74) [10]: 15%; Inhibition of PAD2: value at 80 µM inhibitor (0 µM: 74) [10]: 9%; Inhibition of PAD4: value at 10 µM inhibitor (0 µM: 71) [11]: 46%; Inhibition of PAD4: value at 20 µM inhibitor (0 µM: 71) [11]: 36%; Inhibition of PAD4: value at 40 µM inhibitor (0 µM: 71) [11]: 18%; Inhibition of PAD4: value at 80 µM inhibitor (0 µM: 71) [11]: 13%
5 | Ac-KWH[Orn(fluoroacetimidoyl)]DFF-NH2 (SMILES CC(=O)N[C@@H](CCCCN)C(=O)N[C@@H](Cc1c[nH]c2ccccc12)C(=O)N[C@@H](Cc1c[nH]cn1)C(=O)N[C@@H](CCCNC(=N)CF)C(=O)N[C@@H](CC(=O)O)C(=O)N[C@@H](Cc1ccccc1)C(=O)N[C@@H](Cc1ccccc1)C(N)=O) [0748-09FA] |  |  |  | > 1000 | 1000 | > 1000 | > 2000 | 23 | 6 | 5 | 51 | 22 | 13 | Inhibition of PAD2: value at 10 µM inhibitor (0 µM: 76) [10]: 25%; Inhibition of PAD2: value at 20 µM inhibitor (0 µM: 76) [10]: 14%; Inhibition of PAD2: value at 40 µM inhibitor (0 µM: 76) [10]: 8%; Inhibition of PAD2: value at 80 µM inhibitor (0 µM: 76) [10]: 4%; Inhibition of PAD4: value at 10 µM inhibitor (0 µM: 67) [11]: 51%; Inhibition of PAD4: value at 20 µM inhibitor (0 µM: 67) [11]: 38%; Inhibition of PAD4: value at 40 µM inhibitor (0 µM: 67) [11]: 27%; Inhibition of PAD4: value at 80 µM inhibitor (0 µM: 67) [11]: 18%
